Measurements reported in patent US20210395344A1 (TWIST BIOSCIENCE, published 2021).
Positions count from the first letter of the chain named.

B1: SARS-CoV-2 variant 1-22 (antibody, V domains shown)
VH: EVQLLESGGGLVQPGGSLRLSCAASGFTFSSYAMNWVRQAPGKGLEWVSIISGSGGSTYYADSVKGRFTISRDNSKNTLYLQMNSLRAEDTAVYYCAREGYRDYLWYFDLWGQGTLVTVSS
VL: QSALTQPASVSGSPGQSITISCTGTSTDVGSYNLVSWYQQHPGKAPKLMIYEGSQRPSGVSNRFSGSKSGNTASLTISGLQAEDEADYYCCSYAGSSTVFGGGTKLTVL
B2: SARS-CoV-2 variant 1-21 (antibody, V domains shown)
VH: B1 VH with A33T, N35S
VL: QSALTQPASVSGSPGQSITISCTGTSSDVGSNNLVSWYQQHPGKAPKLMIYEGNKRPSGVSNRFSGSKSGNTASLTISGLQAEDEADYYCCSYAGSVVFGGGTKLTVL
B3: SARS-CoV-2 variant 1-24 (antibody, V domains shown)
VH: B1 VH
VL: B1 VL with T27S, S31Y, S54N, Q55K, S96G, T98V
B4: SARS-CoV-2 variant 1-23 (antibody, V domains shown)
VH: B1 VH with M34I, N35S
VL: B1 VL with T27N, S54N, Q55K, S97Y
B5: SARS-CoV-2 variant 1-38 (antibody, V domains shown)
VH: EVQLLESGGGLVQPGGSLRLSCAASGITFSSYAMSWVRQAPGKGLEWVSGISGSGGSTYYADSVKGRFTISRDNSKNTLYLQMNSLRAEDTAVYYCAKHGSGTIFGVVIAKYYFDYWGQGTLVTVSS
VL: QSALTQPASVSGSPGQSITISCTGTSSDIGSYNLVSWYQQHPGKAPKLMIYEGTKRPSGVSNRFSGSKSGNTASLTISGLQAEDEADYYCCSYAGSRTYVFGGGTKLTVL
B6: SARS-CoV-2 variant 1-42 (antibody, V domains shown)
VH: B5 VH with I27V, G50A, S52T
VL: B5 VL with I29V, S31R, T54G, G95S, R97S, Y99L
B7: SARS-CoV-2 variant 1-32 (antibody, V domains shown)
VH: EVQLLESGGGLVQPGGSLRLSCAASGFTFSSYAMYWVRQAPGKGLEWVSAISGSGGSTFYADSVKGRFTISRDNSKNTLYLQMNSLRAEDTAVYYCTRPPYGDYGDYWGQGTLVTVSS
VL: QSALTQPASVSGSPGQSITISCTGTSSDVGGYNLVSWYQQHPGKAPKLMIYEGNKRPSGVSNRFSGSKSGNTASLTISGLQAEDEADYYCCSYAGSSTFPVVFGGGTKLTVL
B8: SARS-CoV-2 variant 1-10 (antibody, V domains shown)
VH: EVQLLESGGGLVQPGGSLRLSCAASGFTFSSYDMSWVRQAPGKGLEWVSVISGSGGSTYYADSVKGRFTISRDNSKNTLYLQMNSLRAEDTAVYYCAKGPLVGWYFDLWGQGTLVTVSS
VL: QSALTQPASVSGSPGQSITISCTGTSSNVGSYNLVSWYQQHPGKAPKLMIYEGTKRPSGVSNRFSGSKSGNTASLTISGLQAEDEADYYCCSYAGSSSFVVFGGGTKLTVL
B9: SARS-CoV-2 variant 1-30 (antibody, V domains shown)
VH: B7 VH with Y35T
VL: B8 VL with S27R, N28D, S97R, S98T, F99P
B10: SARS-CoV-2 variant 1-8 (antibody, V domains shown)
VH: B8 VH
VL: B5 VL with S27N, I29V, T54S, T98Y, Y99V
B11: SARS-CoV-2 variant 1-27 (antibody, V domains shown)
VH: EVQLLESGGGLVQPGGSLRLSCAASGFTFSSYAMTWVRQAPGKGLEWVSAISGSGGGTYYADSVKGRFTISRDNSKNTLYLQMNSLRAEDTAVYYCASSSSWQFDYWGQGTLVTVSS
VL: B8 VL with N28Y, S31H, T54S, K55R, S97Y, S98T, F99H, V100Y
B12: SARS-CoV-2 variant 1-26 (antibody, V domains shown)
VH: EVQLLESGGGLVQPGGSLRLSCAASGFTFSSYAISWVRQAPGKGLEWVSAISGSGYSTYYADSVKGRFTISRDNSKNTLYLQMNSLRAEDTAVYYCARGAPDSSGYYFQGEVYFDYWGQGTLVTVSS
VL: B8 VL with N28D, S31G, Y93F, A94V, G95R, S98A, F99H
B13: SARS-CoV-2 variant 1-47 (antibody, V domains shown)
VH: EVQLLESGGGLVQPGGSLRLSCAASGFTFSSQAMSWVRQAPGKGLEWVSAISGSGGGTYYADSVKGRFTISRDNSKNTLYLQMNSLRAEDTAVYYCAKDRRFGEFDPWGQGTLVTVSS
VL: B8 VL with N28G, T54I
B14: SARS-CoV-2 variant 1-2 (antibody, V domains shown)
VH: B13 VH
VL: B8 VL with N28G, T54I
B15: SARS-CoV-2 variant 1-5 (antibody, V domains shown)
VH: B13 VH
VL: B8 VL with N28G, G53A, T54S, S97Y, S98T, V100A
B16: SARS-CoV-2 variant 1-4 (antibody, V domains shown)
VH: B13 VH
VL: B8 VL with N28D, S31T, T54S, K55Q
B17: SARS-CoV-2 variant 1-31 (antibody, V domains shown)
VH: B7 VH with Y35N
VL: B8 VL with N28D, S31K, T54S, K55Q, S97R, S98T, F99P
B18: SARS-CoV-2 variant 1-3 (antibody, V domains shown)
VH: B13 VH
VL: B8 VL with T25I, N28D
B19: SARS-CoV-2 variant 1-7 (antibody, V domains shown)
VH: B8 VH
VL: B8 VL with N28D, V29F, T54N, S98T
B20: SARS-CoV-2 variant 1-28 (antibody, V domains shown)
VH: B11 VH with A33G, T35S
VL: B8 VL with N28G, T54S, K55Q, S98T, F99H, V100Y
B21: SARS-CoV-2 variant 1-33 (antibody, V domains shown)
VH: B7 VH with Y35I
VL: B8 VL with N28D, V35L, G53A, T54S, S97R, S98T, F99P
B22: SARS-CoV-2 variant 1-9 (antibody, V domains shown)
VH: B8 VH
VL: B8 VL with N28D, S31D, T54S, K55N
B23: SARS-CoV-2 variant 1-41 (antibody, V domains shown)
VH: B8 VH
VL: B5 VL

Target: T1, Acro COVID S1 (S1N-C82E8) (SARS-CoV-2, UniProt P0DTC2 16-685)
T1 construct: domain: S1 (subunit 1)
Test: phage ELISA

| Binder | specificity ELISA, fold over background |
| --- | --- |
| B1 | 32.7 fold over background |
| B2 | 19.5 fold over background |
| B3 | 12.9 fold over background |
| B4 | 5.1 fold over background |
| B5 | 1.1 fold over background |
| B6 | 22.7 fold over background |
| B7 | 11.5 fold over background |
| B8 | 17.4 fold over background |
| B9 | 16.8 fold over background |
| B10 | 12 fold over background |
| B11 | 1.5 fold over background |
| B12 | 1.4 fold over background |
| B13 | 8.1 fold over background |
| B14 | 1.8 fold over background |
| B15 | 1.5 fold over background |
| B16 | 1 fold over background |
| B17 | 30.4 fold over background |
| B18 | 1.6 fold over background |
| B19 | 6.8 fold over background |
| B20 | 1 fold over background |
| B21 | 7.1 fold over background |
| B22 | 10.7 fold over background |
| B23 | 4.5 fold over background |
